Assay results from the supplement of paper PMC7877785.
± gives the uncertainty stated by the source.

Experiment: self-splicing fitness, log relative to wild type (ln ratio); higher = more splicing; Tetrahymena group I intron in knt gene, E. coli kanamycin selection, DiMSum; sequences stand for … in CUCUCU…GGAGGGAAAAGUUAUCAGGCAUGCACCUGGUAGCUAGUCUUUAAACCAAUAGAUUGCAUCGGUUUAAAAGGCAAGACCGUCAAAUUGCGGGAAAGGGGUCAACAGCCGUUCAGUACCAAGUCUCAGGGGAAACUUUGAGAUGGCCUUGCAAAGGGUAUGGUAAUAAGCUGACGGACAUGGUCCUAACCACGCAGCCAAGUCCUAAGUCAACAGAUCUUCUGUUGAUAUGGAUGCAGUUCACAGACUAAAUGUCGGUCGGGGAAGAUGUAUUCUUCUCAUAAGAUAUAGUCGGACCUCUCCUUAAUGGGAGCUAGCGGAUGAAGUGAUGCAACACUGGAGCCGCUGGGAACUAAUUUGUAUGCGAAAGUAUAUUGAUUAGUUUUGGAGUACUCGUGGUCG
Outline: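 The eight P1ex-region nucleotides of an intron in the knt kanamycin-resistance gene on pET-22b(+) were all randomised and the library put into E. coli BL21(DE3). Six replicate transformations were grown overnight at 37°C or 30°C on LB agar with or without 25 μg/mL kanamycin, together with 100 μg/mL carbenicillin, 50 μM IPTG and 0.2% rhamnose. Colonies were pooled and amplicon-sequenced on an Illumina HiSeq 2500. Fitness from DiMSum is the error-weighted combination of wild-type-normalised replicate fold changes, kanamycin over none.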

Row | Sequence | self-splicing fitness (ln) (30 °C) | self-splicing fitness (ln) (37 °C)
1 | UCAUAGCAAUAUUACGCAAC | -3.77 ± 0.39 | -1.48 ± 0.32
2 | AUAUAGCAAUAUUACGUCAA | -2.93 ± 0.25 | -2.06 ± 0.2
3 | ACCAAGCAAUAUUACGCGAG | -2.46 ± 0.076 | -1.27 ± 0.072
4 | UAACAGCAAUAUUACGACCA | -0.808 ± 0.08 | 0.224 ± 0.11
5 | AUACAGCAAUAUUACGCGCA | -0.623 ± 0.078 | -0.0747 ± 0.11
6 | AUGCAGCAAUAUUACGCAUA |  | -2.06 ± 0.38
7 | CCCUAGCAAUAUUACGACCA | -3.35 ± 0.24 | -3.33 ± 0.27
8 | CGGGAGCAAUAUUACGCAAA |  | -2.01 ± 0.35
9 | GCCUAGCAAUAUUACGCCUC | 0.149 ± 0.18 | 0.175 ± 0.41
10 | GUGUAGCAAUAUUACGCUUC | -2.71 ± 0.28 | -3.09 ± 0.47
11 | GGAAAGCAAUAUUACGUCGG | -3.51 ± 0.36 | 
12 | CCUCAGCAAUAUUACGAGUA | -3.06 ± 0.21 | -2.38 ± 0.21
13 | GCCAAGCAAUAUUACGGUAA | -0.713 ± 0.1 | 0.0284 ± 0.1
14 | UAAUAGCAAUAUUACGUAUG | -1.88 ± 0.12 | -0.28 ± 0.13
15 | CGAGAGCAAUAUUACGCUGC | -2.93 ± 0.36 | -2.48 ± 0.37
16 | GUCAAGCAAUAUUACGAGGG | -4.08 ± 0.42 | -3.38 ± 0.3
17 | CAUAAGCAAUAUUACGGACC | -3.27 ± 0.31 | -3.87 ± 0.23
18 | UCCAAGCAAUAUUACGAUGC | -2.69 ± 0.31 | 
19 | CUCAAGCAAUAUUACGUGAG | -3.05 ± 0.11 | -3.3 ± 0.16
20 | CUUUAGCAAUAUUACGCAGA |  | -2.09 ± 0.3
21 | GACUAGCAAUAUUACGCACG | -0.535 ± 0.068 | 0.219 ± 0.085
22 | UAAGAGCAAUAUUACGCCCU | -3.1 ± 0.31 | -2.01 ± 0.41
23 | UGCCAGCAAUAUUACGAAAG | -2.78 ± 0.13 | -1.4 ± 0.15
24 | AUUUAGCAAUAUUACGUAAG | -2.8 ± 0.18 | 0.197 ± 0.18
25 | AGGUAGCAAUAUUACGAAUC | -3.462 ± 0.031 | -2.2 ± 0.041
26 | AAUUAGCAAUAUUACGCAAC | -3 ± 0.4 | -1.93 ± 0.24

Row | Sequence | self-splicing fitness (ln) (30 °C) | self-splicing fitness (ln) (37 °C)
27 | UUUUAGCAAUAUUACGGCUU | -1.98 ± 0.17 | -0.826 ± 0.2
28 | AAAGAGCAAUAUUACGACGU | -1.63 ± 0.084 | -0.555 ± 0.089
29 | UACCAGCAAUAUUACGCAUG | -1.22 ± 0.062 | -1.09 ± 0.078
30 | AAUAAGCAAUAUUACGCAAA | -1.62 ± 0.23 | -2.05 ± 0.25
31 | CCGAAGCAAUAUUACGUAUC | -2.92 ± 0.24 | -3.03 ± 0.25
32 | UUCCAGCAAUAUUACGCUCC | -2.51 ± 0.24 | -0.988 ± 0.22
33 | GCCAAGCAAUAUUACGUACA | -2.65 ± 0.16 | -1.65 ± 0.11
34 | CCCAAGCAAUAUUACGCGCC |  | -1.59 ± 0.34
35 | UCUGAGCAAUAUUACGGUUC |  | -2.51 ± 0.4
36 | ACAAAGCAAUAUUACGACUG | -0.48 ± 0.06 | -0.066 ± 0.09
37 | CAUUAGCAAUAUUACGGAUG | -3.67 ± 0.39 | -3.03 ± 0.25
38 | AUCCAGCAAUAUUACGGACA | -0.527 ± 0.099 | -0.096 ± 0.11
39 | UCUUAGCAAUAUUACGUUAU | -3.27 ± 0.28 | -2.3 ± 0.28
40 | AGCCAGCAAUAUUACGCACC | -0.939 ± 0.18 | -1.12 ± 0.18
41 | AAAAAGCAAUAUUACGUCGU | -1.5 ± 0.061 | -0.928 ± 0.078
42 | CACAAGCAAUAUUACGGGGC | -3.54 ± 0.17 | -2.54 ± 0.18
43 | GUGGAGCAAUAUUACGAUUC | -0.681 ± 0.31 | 0.0106 ± 0.22
44 | AAGCAGCAAUAUUACGUCUC | -1.28 ± 0.065 | -0.717 ± 0.077
45 | GAUAAGCAAUAUUACGCUUC |  | -3.04 ± 0.29
46 | GCUCAGCAAUAUUACGAUCA | -0.7 ± 0.19 | -0.164 ± 0.17
47 | AUCCAGCAAUAUUACGCUCG | -1.75 ± 0.26 | -0.356 ± 0.22
48 | GAUGAGCAAUAUUACGGUAC | -5.2 ± 0.36 | -2.2 ± 0.33
49 | UUAUAGCAAUAUUACGACCA | -0.882 ± 0.2 | -0.384 ± 0.21
50 | AAGGAGCAAUAUUACGCUAC | -2.75 ± 0.43 | 
51 | UUACAGCAAUAUUACGCCGU |  | -2.05 ± 0.31
